The source of these data is US20060148705A1 (Regeneron, published 2006).

Test [1] has as its target T1, human VEGF165 (human, UniProt P15692-4 27-191).
T1 construct: also called hVEGF165
Description: half-life of dissociation from hVEGF165, as described in WO/0075319.

For test [2], the target named is T1, human VEGF165. Put plainly: kinetic dissociation rate from hVEGF165, as described in WO/0075319.
Test [3] concerns the target T1, human VEGF165. Description: BIAcore 2000; t½ = 0.693/kd. On the procedure:
(§1) Binding assays were carried out by first capturing around 100 RU of each fusion protein construct to the immobilized anti-VEGFR1 mAb, after which various concentrations (0-2 nM) of human VEGF165 were injected over the captured fusion protein surface at a flow rate of 100 μl/min for 2 minutes. The fusion protein constructs binding kinetic parameters including ka (1/Ms) (association rate constant), kd (1/s) (dissociation rate constant) and KD (dissociation equilibrium constant) were determined using the BIA evaluation 4.1 computer program (Biacore, Inc.), and t½ was determined using formula 0.693/kd (dissociation rate).

Test [4] addresses T1, human VEGF165. Description: BIAcore 2000; fusion protein captured on anti-VEGFR1 mAb, human VEGF165 (0-2 nM) injected. On the procedure:
as §1

T1 sequence (P15692 other isoform, or with tags, fused parts or gaps limits assumed): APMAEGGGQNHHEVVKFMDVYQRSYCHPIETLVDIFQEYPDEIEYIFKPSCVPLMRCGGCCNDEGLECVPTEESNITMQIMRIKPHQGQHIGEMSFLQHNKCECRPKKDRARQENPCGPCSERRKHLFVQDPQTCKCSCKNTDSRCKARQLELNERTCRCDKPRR

B1: recombinant monomeric R1R2-myc myc his (receptor, not shown: small tags and cut ends)
chain: GRPFVEMYSEIPEIIHMTEGRELVIPCRVTSPNITVTLKKFPLDTLIPDGKRIIWDSRKGFIISNATYKEIGLLTCEATVNGHLYKTNYLTHRQTNTIIDVVLSPSHGIELSVGEKLVLNCTARTELNVGIDFNWEYPSSKHQHKKLVNRDLKTQSGSEMKKFLSTLTIDGVTRSDQGLYTCAASSGLMTKKNSTFVRVHEK
modifications: Monomer with a C-terminal myc-myc-His tag that is not given in letters and is left out.
notes: Monomer; also called R1R2-myc myc his monomer
Turning to B1, the “T1/2” value in the test with human VEGF165 [1] was 1.68 min. In the test with human VEGF165 [2], this molecule yielded a koff of 0.00674 s⁻¹.

B2: fusion protein R1R2R1R2 (SEQ ID NO:24), single chain VEGF mini-trap (receptor)
chain: SDTGRPFVEMYSEIPEIIHMTEGRELVIPCRVTSPNITVTLKKFPLDTLIPDGKRIIWDSRKGFIISNATYKEIGLLTCEATVNGHLYKTNYLTHRQTNTIIDVVLSPSHGIELSVGEKLVLNCTARTELNVGIDFNWEYPSSKHQHKKLVNRDLKTQSGSEMKKFLSTLTIDGVTRSDQGLYTCAASSGLMTKKNSTFVRVHEKGPGRPFVEMYSEIPEIIHMTEGRELVIPCRVTSPNITVTLKKFPLDTLIPDGKRIIWDSRKGFIISNATYKEIGLLTCEATVNGHLYKTNYLTHRQTNTIIDVVLSPSHGIELSVGEKLVLNCTARTELNVGIDFNWEYPSSKHQHKKLVNRDLKTQSGSEMKKFLSTLTIDGVTRSDQGLYTCAASSGLMTKKNSTFVRVHEK
notes: Monomer, secreted from CHO K1 cells; also called R1R2-R1R2 VEGF mini-trap; (R1R2)2
As for B2, the “t½” value with human VEGF165 [3] came to 24.1 h. In the test with human VEGF165 [4], the dissociation constant (Kd) was determined as 1.76 pM, the koff was 8e-06 s⁻¹ and the association rate constant (kon) amounted to 4.54e+06 M⁻¹ s⁻¹.
